The values below come from IntAct's records for PubMed 22327296.

B1: Transcription factor JunD (Homo sapiens), P17535 (parent)
chain: METPFYGDEALSGLGGGASGSGGSFASPGRLFPGAPPTAAAGSMMKKDALTLSLSEQVAAALKPAAAPPPTPLRADGAPSAAPPDGLLASPDLGLLKLASPELERLIIQSNGLVTTTPTSSQFLYPKVAASEEQEFAEGFVKALEDLHKQNQLGAGAAAAAAAAAAGGPSGTATGSAPPGELAPAAAAPEAPVYANLSSYAGGAGGAGGAATVAFAAEPVPFPPPPPPGALGPPRLAALKDEPQTVPDVPSFGESPPLSPIDMDTQERIKAERKRLRNRIAASKCRKRKLERISRLEEKVKTLKSQNTELASTASLLREQVAQLKQKVLSHVNSGCQLLPQHQVPAY

In this assay the parent is B1. The conditions noted are these: with mk10_human MAPK10, P53779.
Sequence of mk10_human MAPK10, P53779 (P53779 whole entry): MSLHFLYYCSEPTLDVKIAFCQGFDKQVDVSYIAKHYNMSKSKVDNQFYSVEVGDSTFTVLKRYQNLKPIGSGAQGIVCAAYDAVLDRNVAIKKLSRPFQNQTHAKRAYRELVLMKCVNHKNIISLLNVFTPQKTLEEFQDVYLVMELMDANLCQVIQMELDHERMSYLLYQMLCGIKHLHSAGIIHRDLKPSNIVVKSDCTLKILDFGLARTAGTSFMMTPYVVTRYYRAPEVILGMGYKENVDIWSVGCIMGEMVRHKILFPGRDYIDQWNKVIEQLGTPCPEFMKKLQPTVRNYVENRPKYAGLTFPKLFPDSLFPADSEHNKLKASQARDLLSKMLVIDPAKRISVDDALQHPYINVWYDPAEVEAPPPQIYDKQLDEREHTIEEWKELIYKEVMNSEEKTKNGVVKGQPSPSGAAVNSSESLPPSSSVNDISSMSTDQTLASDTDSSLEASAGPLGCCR
Turning to L52A;L54A, the “effect of a mutation on the interaction” value was “disrupting interaction strength”.

As for K46A;K47A, the “effect of a mutation on the interaction” value is “disrupting interaction strength”.
